Results taken from PMC10720262 (Cell Reports, 2023).
Residue numbers refer to the chain shown, from its start.

Target: recombinant full-length PfCSP (Plasmodium falciparum circumsporozoite protein, strain NF54) (Plasmodium falciparum NF54, UniProt P19597)
Sequence (P19597 20-375): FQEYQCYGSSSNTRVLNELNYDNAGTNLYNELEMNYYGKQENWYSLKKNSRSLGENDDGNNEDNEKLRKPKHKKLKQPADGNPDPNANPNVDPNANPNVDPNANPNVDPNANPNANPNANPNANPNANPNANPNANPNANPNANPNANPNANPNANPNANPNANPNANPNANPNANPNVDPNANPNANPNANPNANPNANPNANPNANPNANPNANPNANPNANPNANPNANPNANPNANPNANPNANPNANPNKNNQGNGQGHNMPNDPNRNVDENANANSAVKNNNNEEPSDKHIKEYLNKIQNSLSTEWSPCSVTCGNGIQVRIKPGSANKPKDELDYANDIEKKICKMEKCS

B1: CL-458015 (antibody, V domains shown)
VH: QVHLVESGGGVVQPGRSLRLSCAASGFTFSNYGMHWVRQAPGKGLDWVAIIWYDGSNKFYADSVQGRFTISRDNSKNTLYLQMNSLRAEDTAVYYCAKVQDLLGVPSTLGDHYTTDVWGQGTSVTVSS
VL: DIQMTQSPSTLSASVGDRITITCRASQSINDWLAWYQQKAGKAPKLLIYKASSLESGVPSRFSGSGSGTDFTLTISSLQTDDFAIYYCQQYNHYWTFGQGTKVEIK
- binding result: binds

B2: CL-445901 (antibody, V domains shown)
VH: QVQLVESGGGVVQPGRSLRLSCAASGFTFSNYGIHWVRQAPGKGLEWVALIWFNGNNKFYADSVEGRFTVSRDNSKNTLYLQLNSLRAEDTAVYYCARAYYFASGNYMDYWGQGTLVTVSS
VL: DIQMTQSPSSVSASMGDRVTITCRASQDISSSLAWYQQKPGKAPILLISFASSLHSGVPSRFSGSGSGTDFTLTISSLQPEDFATYSCQQANSFPWTFGQGTRVEVK
- binding result: binds

B3: CL-447703 (antibody, V domains shown)
VH: QVQLVESGGGVVQPGRSLRLSCEASGFTFSDHGMHWVRQGPGKGLEWVSIIWYDGSNKYYADSVKGRFTISRDNSKNTLYLEMNRLRAEDTALYYCARVWNHDDYKYSMDVWGQGTTVTVSS
VL: not shown
- binding result: binds

B4: CL-450034 (antibody, V domains shown)
VH: QVQLVESGGGAVQAGTSLRLSCAASGFTFSYNGMHWVRQGPGKGLEWVAIIWYDGGNKFYADSVKGRFTISRDNSKNMLYLQMNRLRAEDTAVYYCARAWNYADSKYSMDVWGQGTTVTVSS
VL: not shown
- binding result: binds

B5: CL-460506 (antibody, V domains shown)
VH: QVQLVESGGGVVQPGRSLRLSCAASGFTFSNYGMHWVRQAPGKGLEWMAIIWYDGSNKYYADSVKGRFTISRDNSMNTLYLQMNSLRPEDTALYYCARAFYYGSGTLDYWGQGTLVTVSS
VL: EIVLTQSPATLSVSPGERATLSCRASQSVSSHLAWYQQKFGQAPRLLIYGASNRATGIPARFSGSGSGTEFTLTISILQSEDFAVYYCQQYNNWFTFGPGTKIDIK
- binding result: binds

B6: CL-447737 (antibody, V domains shown)
VH: QVQLVESGGGVVQPGRSLRLSCAASGFTFSSYGMHWVRQAPGKGLEWVAIIWFDGSNIFYEDSVKGRFTISRDNSKNTLYLQMNSLRAEDTAVYYCAKVWNYDSDYYSMDVWGQGTTVTVSS
VL: not shown
- binding result: binds

B7: CL-449759 (antibody, V domains shown)
VH: QVHLVESGGGVVQPGESQRLSCAASGFTFSNYGMHWVRQAPGKGLEWVALIWYDGSNKFYADSVKGRFTISRDNSKNTLYLHMNSLRAEDTAMYYCAKVPNWNDDKYTMDVWGQGTTVTVTS
VL: not shown
- binding result: binds

B8: CL-460369 (antibody, V domains shown)
VH: QVQLVESGGGVVQPGRSLRLSCAASGFTFSNYGMHWVRQAPGKGLEWVGIIWYDGSNKYYIDSVKGRFTISRDNSRNTLYLQINSLRAEDTAVYYCARDGGWNDDYYYVMDVWGQGTTVTVSS
VL: DIVMTQSPDSLAVSLGEGATINCKSSQSVLYSSNNKNYLAWYQQKPGQPPKVLIYWASIRESGVPDRFSGSGSGTDFTLTISSLQAEDVAVYYCQQYYSMCSFGQGTKLEIK
- binding result: binds

B9: CL-460619 (antibody, V domains shown)
VH: QVQLVESGGGVVQPGRSLRLSCAASGFTFDYYGMHWVRQAPGKGLEGVAIIWYDGSNKFYADSVKGRFTISRDNSKNTLYLQMTSLRVEDTAVYYCARDGRIGDPGPYFDYWGQGTLVTVSS
VL: EIVMTQSPATLSVSPGERPTLSCRASQSVSSKLAWYQQKPDQAPRLLIYGASTRATGIPPRFSGSGSGTEFTLTIDSLQSEDFAVYYCQQYHKWWTFGQGTKVEIK
- binding result: binds

B10: CL-447376 (antibody, V domains shown)
VH: QVQLVESGGGVVQPGRSLRLSCAASGFNFNNYGMHWVRQAPVMGLEWVAIIWYDGSNKFYADSVKGRFTISRDNSQNTLFLQMNSLRAEDTGIYYCARSGGEMGNFDYWGQGTLVTVSS
VL: DIVMTQSPLSLPVTLGQPASISCRSSQSLVYSNGDTYLDWFQLRPGQSPRRLIYKVSHRDSGVPDRFSGSGSGTEFTLRISRVEAEDVGIYYCMQGTHYWTFGQGTEVEIK
- binding result: binds

B11: CL-445457 (antibody, V domains shown)
VH: QVQLVESGGAVVQPGTSLRLSCAASGFTFSNYGIHWVRQAPGKGLQWVALIWYNGNNKFYADSVQGRFTISRDNSKNILYLQINSLSAEDTAVYYCARAFYSDSGNYMDYWGQGALVTVSS
VL: DIQMTQSPSSVSASVGDRVTITCRARQDISSRLAWYQQKPGKAPKILIYGASSLQSGVPSRFSASGSGTDFTLTISSLQPEDVASYFCQQANSFPWTFGQGTKVEIK
- binding result: binds

B12: CL-445635 (antibody, V domains shown)
VH: B11 VH with I34M, D62E, Q65E, T69I, Y80F, I83M, S102Y, M108L, Q113P, A115S
VL: B11 VL with V83F, S85T, F87Y
- binding result: binds

B13: CL-453181 (antibody, V domains shown)
VH: QVQLVESGGGVVQPGRSLRLSCAASGFTFSYYGMHWVRQAPGKGLEWVSIIWYDGSNKFYADSVKGRFTISRDNSKDTLYLEMNSLRAEDTAVYYCARVEFYNGSGRDFYYGLDVWGQGTTVTVSS
VL: EIVMTQSPATLSVSPGEGATLSCRASQSVSSNLAWYQQKPGQAPRLLISGASTRATGVPARFSGSGSGTEFALTISSLQSEDFAVYYCQQYSKLWTFGQGTKVEIK
- binding result: binds

B14: CL-445827 (antibody, V domains shown)
VH: QVQLVASGGGVVQPGRSLRLSCVASGFTFSFFGMHWVRQTPGRGLEWVAIIWYDGGHKFYADSVKGRFTISRDNSKDTLYLQMNSLRAEDTAVYYCARAEDNMARGNIDYSKYGMDVWGQGTTVTVSS
VL: DIQMTQSPSTLSVSIGDRVTITCRASQSISTWLAWYQQKPGKAPKLLIYKASNLESGVPSRFSGSGSGTDFTLTISGLQPDDFATYYCQQYFSYWTFGQGTKVEIK
- binding result: binds

B15: CL-447609 (antibody, V domains shown)
VH: QVQLVESGGGVVQPGRSLRLSCAASGFTFNNYGMHWVRQAPGKGLDWVAIIWFDGSNKYYADSVKGRFTISRDNSKNTLYLQMNSLRAEDTAVYYCARVGDHSKYRNRGDAFDIWGQGTMVTVSS
VL: B14 VL with V13A, I15V, T31S, N53S, D70E, G77S, F83S, Y87F, F92D
- binding result: binds

B16: CL-449849 (antibody, V domains shown)
VH: B4 VH with Y102F, S105N
VL: B14 VL with V13A, I15V, T31S, K45Q, N53S, D70E, G77S, F92Y, S93I, E104D
- binding result: binds

B17: CL-449007 (antibody, V domains shown)
VH: QVQVVESGGGVVQPGRSLRLSCAASGFTFSNYGMHWVRQAPGKGLEWVAIIWYDGSHKFYANSVKGRFTISRDNSKNTLFLQMNSLRAEDTAVYYCARVGNGNSDWTDAFDIWGQGTMVTVSS
VL: B1 VL with I19V, D31S, A40P, D70E, T80P, I85T, H93T
- binding result: binds

B18: CL-460406 (antibody, V domains shown)
VH: QIQLVESGGGVVQPGRSLRLSCAASGFTFSNSGMHWIRQAPGKGLEWVTIIWYDGSNKYYADSVKGRFTISRDNSKNTLYLQMNSLRAEDTAIYYCARAYSSSSDDYYGMDVWGQGTTVTVSS
VL: B14 VL with V13A, I15V, T31S, N53S, G77S, Y91F, F92Y, S93N, K106T
- binding result: binds

B19: CL-447563 (antibody, V domains shown)
VH: QVQLVASGGGVVQPGRSLRLSCAASGFTFSNYGMHWVRQAPGKGLEWVAIIWYDGSKKYYSDSVKGRFTISRDNSKNTLYLQMNSLRAEDTAVYYCARAYGSGSYSDDYYGMDVWGQGTTVTVSS
VL: B14 VL with V13A, I15V, D70E, G77S, F92Y
- binding result: binds

B20: CL-459075 (antibody, V domains shown)
VH: B19 VH with A49S
VL: B14 VL with V13A, I15V, Y36C, D70E, G77S, F92Y
- binding result: binds

B21: CL-459404 (antibody, V domains shown)
VH: B19 VH with Y80N
VL: B14 VL with V13A, I15V, T31P, Y36F, D70E, G77S, F92Y, S93T
- binding result: binds

B22: CL-444906 (antibody, V domains shown)
VH: QVQLVESGGGVVQPGRSLRLSCTASGFTFSTYGMHWVRQAPGKGLEWVAIIWYDGSNKFYADSVKGRFTISRDNSKDTLYLQMNSLRAEDTAIYYCARAWDKVDDKYGMDVWGQGTTVTVSS
VL: not shown
- binding result: binds

B23: CL-449869 (antibody, V domains shown)
VH: B22 VH with V11A, T23A, T31Y, Y32N, Q82E, D101N, K102Y, V103D, D105K, G108S
VL: B1 VL with I19V, N30S, D31S, A40P, D70E, T80P, I85T, H93Y, Y94F, K106R
- binding result: binds

B24: CL-449724 (antibody, V domains shown)
VH: QVHLVASGGGVVQPGRSLRLSCEVTGFTFSSYGMHWVRQDPGRGLEWVAIIWYDGSNKFYADSVKGRFTISRDNSKNTLYLQMNSLRAEDTAVYYCARSYGILTGYQTKYGMDVWGQGTTVTVSS
VL: not shown
- binding result: binds

B25: CL-444739 (antibody, V domains shown)
VH: QVHLVESGGGVVQPGRSLRLSCVASGFSFSSYGMHWVRQAPGKGLEWVAIIWYDGSNRYYADSVQGRFTISRDNSKNTLYLQMNSLRAEDTAVYYCAKVGLSYNGRTGAFDVWGQGTMVTVSS
VL: not shown
- binding result: binds

B26: CL-444882 (antibody, V domains shown)
VH: B25 VH with V23A, A24T, R58K, Y59F, Q65K, K76E, N104S, V112I
VL: B14 VL with V13A, I15V, T31I, S52A, N53S, F62I, D70E, G77S, F92N
- binding result: binds
